Laboratory results published in paper PMC2755859.

Tests used:
[1] = molecular target: PRMT5cat (human) (UniProt O14744); assay: AUC
[2] = molecular target: pICln (UniProt P54105); assay: AUC
Chain of pICln (P54105 whole entry): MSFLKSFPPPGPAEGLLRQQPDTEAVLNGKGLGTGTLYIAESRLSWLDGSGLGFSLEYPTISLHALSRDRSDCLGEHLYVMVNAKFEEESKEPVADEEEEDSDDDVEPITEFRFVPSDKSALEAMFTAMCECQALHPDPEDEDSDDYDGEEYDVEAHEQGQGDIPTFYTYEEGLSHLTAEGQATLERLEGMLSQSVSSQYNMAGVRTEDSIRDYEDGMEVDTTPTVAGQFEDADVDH

Chain of SmD3 (P62318 whole entry): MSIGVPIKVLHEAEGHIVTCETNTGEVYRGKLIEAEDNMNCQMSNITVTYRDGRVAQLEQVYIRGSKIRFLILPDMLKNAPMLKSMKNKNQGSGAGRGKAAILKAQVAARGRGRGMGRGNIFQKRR

| Kd [1] [µM] | stoichiometry N [1] | stoichiometry N [2] | Substance |
| --- | --- | --- | --- |
| 20 | 2 |  | PRMT5cat (from UniProt O14744 296-637) (domain or fragment) |
|  |  | 1 | SmD3 (from UniProt P62318 1-126) (natural protein) |
